Assays:
[1] = target: T1, recombinant human MERTK (human, UniProt Q12866 21-505, limits assumed); assay: biolayer interferometry, M19 loaded on AMQ sensor at 1 ug/mL, hMer in solution at 5 nM, local 1:1 fit
T1 construct: Analyte in solution in biolayer interferometry; also called hMer
T1 sequence: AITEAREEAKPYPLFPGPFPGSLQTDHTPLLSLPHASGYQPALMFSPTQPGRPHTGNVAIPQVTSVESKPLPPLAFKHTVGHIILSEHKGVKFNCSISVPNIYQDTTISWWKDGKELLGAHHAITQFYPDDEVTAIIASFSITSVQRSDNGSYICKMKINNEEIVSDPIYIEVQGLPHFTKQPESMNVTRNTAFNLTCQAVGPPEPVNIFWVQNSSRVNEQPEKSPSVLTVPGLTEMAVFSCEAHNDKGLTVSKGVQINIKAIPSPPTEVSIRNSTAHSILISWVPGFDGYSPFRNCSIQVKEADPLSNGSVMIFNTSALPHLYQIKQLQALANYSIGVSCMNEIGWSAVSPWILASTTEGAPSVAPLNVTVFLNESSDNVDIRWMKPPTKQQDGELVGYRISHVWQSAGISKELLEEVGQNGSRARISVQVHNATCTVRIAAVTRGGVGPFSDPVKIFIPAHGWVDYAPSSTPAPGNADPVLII
Procedure: (§1) FIG. 7: M19 binds to human MERTK with high affinity. A diagram showing antibody binding kinetics for M19 (Mer-M19) against human MERTK (hMer) using biolayer interferometry. Purified M19 was loaded on an AMQ sensor at a concentration of 1 microgram/mL to test binding against analytes in solution. All analytes were prepared at 5 nM with a 2-fold dilution series for a total of 7 concentrations. Kinetic fits were calculated using a 1:1 model, with Local fits for each concentration as well as an overall global fit.
(§2) To characterize the binding affinity of M19 antibody against recombinant human and mouse MERTK, biomolecular interaction analysis was performed using biolayer interferometry (FIG. 7 and FIG. 8). Binding was observed between M19 and both mouse and human MERTK.

[2] = target: T2, recombinant mouse MERTK (mouse, UniProt Q60805 23-496, limits assumed); assay: biolayer interferometry, global fit; mouse MERTK
T2 construct: Analyte in solution in biolayer interferometry; also called msMer; murine MERTK
T2 sequence (looked up): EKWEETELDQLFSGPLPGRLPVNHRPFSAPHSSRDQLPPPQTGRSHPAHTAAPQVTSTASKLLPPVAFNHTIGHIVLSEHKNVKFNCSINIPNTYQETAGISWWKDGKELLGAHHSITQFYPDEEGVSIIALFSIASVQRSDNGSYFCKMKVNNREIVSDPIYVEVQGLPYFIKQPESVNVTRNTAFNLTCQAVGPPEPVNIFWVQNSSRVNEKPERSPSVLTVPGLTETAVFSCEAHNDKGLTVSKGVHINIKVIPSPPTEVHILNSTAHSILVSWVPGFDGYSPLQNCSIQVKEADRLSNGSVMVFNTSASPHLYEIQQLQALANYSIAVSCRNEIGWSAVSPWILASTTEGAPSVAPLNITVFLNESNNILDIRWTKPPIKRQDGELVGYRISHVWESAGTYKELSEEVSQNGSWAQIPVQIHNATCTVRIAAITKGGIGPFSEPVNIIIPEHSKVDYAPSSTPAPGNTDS
Procedure: as §1, with “8:” for “7:”, “murine” for “human”, “(msMer)” for “(hMer)”, “Global” for “global”

[3] = target: T1, recombinant human MERTK; assay: biolayer interferometry, M19 loaded on AMQ sensor at 1 ug/mL, hMer in solution at 0.0781 nM, local 1:1 fit
Procedure: as §1, §2

[4] = target: T2, recombinant mouse MERTK; assay: biolayer interferometry, M19 loaded on AMQ sensor at 1 ug/mL, msMer in solution at 1.25 nM, local 1:1 fit
Procedure: as §1, with “8:” for “7:”, “murine” for “human”, “(msMer)” for “(hMer)”, “Global” for “global”
as §2

[5] = target: T1, recombinant human MERTK; assay: biolayer interferometry, M19 loaded on AMQ sensor at 1 ug/mL, hMer in solution at 0.625 nM, local 1:1 fit
Procedure: as §1, §2

[6] = target: T1, recombinant human MERTK; assay: biolayer interferometry, M19 loaded on AMQ sensor at 1 ug/mL, hMer in solution at 5 to 0.0781 nM, global 1:1 fit
Procedure: as §1, §2

[7] = target: T2, recombinant mouse MERTK; assay: biolayer interferometry, M19 loaded on AMQ sensor at 1 ug/mL, msMer in solution at 5 to 0.0781 nM, global 1:1 fit
Procedure: as §1, with “8:” for “7:”, “murine” for “human”, “(msMer)” for “(hMer)”, “Global” for “global”
as §2

[8] = target: T1, recombinant human MERTK; assay: biolayer interferometry, M19 loaded on AMQ sensor at 1 ug/mL, hMer in solution at 0.1563 nM, local 1:1 fit
Procedure: as §1, §2

[9] = target: T2, recombinant mouse MERTK; assay: biolayer interferometry, M19 loaded on AMQ sensor, msMer analyte from 5 nM in 2-fold dilutions, 1:1 model, global fit
Procedure: as §1, with “8:” for “7:”, “murine” for “human”, “(msMer)” for “(hMer)”, “Global” for “global”

[10] = target: T1, recombinant human MERTK; assay: biolayer interferometry, M19 loaded on AMQ sensor at 1 ug/mL, hMer in solution at 2.5 nM, local 1:1 fit
Procedure: as §1, §2

B1: monoclonal antibody M19 (antibody, V domains shown)
VH: EVQLEESGPDLKKPGETVKISCKASNYTFTDYSMHWVKQAPGKGLKWVGWINTDTGEPTYADDFKGRFAFSLETSASTAYLQINNLKNEDTATYFCARWFGAMDYWGQGTSVTVSS
VL: DIVITQSHKFMSTSVGDRVSITCKASQDVTNVVAWYQQKPGQSPKLLIYSASYRYTGVPDRFTGSGSGTDFTFTISSVQAEDLAVYYCQQYYRTPRTFGGGTKLEIKR
notes: Mouse hybridoma monoclonal antibody; Hybridoma supernatant was used in the ELISA screen, purified antibody in biolayer interferometry; also called Mer-M19
[1]
  Kd: 0.246 nM
  koff: 0.000951 s⁻¹
  kon: 3.86e+06 M⁻¹ s⁻¹
[2]
  Kd: ~0.3 nM
[3]
  Kd: 0.0765 nM
  koff: 0.000934 s⁻¹
  kon: 1.22e+07 M⁻¹ s⁻¹
[4]
  Kd: 0.282 nM
  koff: 0.00149 s⁻¹
  kon: 5.27e+06 M⁻¹ s⁻¹
[5]
  Kd: 0.155 nM
  koff: 0.00079 s⁻¹
  kon: 5.11e+06 M⁻¹ s⁻¹
[6]
  koff: 0.001 s⁻¹
  kon: 3.08e+06 M⁻¹ s⁻¹
[7]
  koff: 0.00144 s⁻¹
  kon: 4.71e+06 M⁻¹ s⁻¹
[8]
  Kd: 0.621 nM
  koff: 0.000949 s⁻¹
  kon: 1.53e+06 M⁻¹ s⁻¹
[9]
  Kd: 0.305 nM
[10]
  Kd: 0.339 nM
  koff: 0.000899 s⁻¹
  kon: 2.65e+06 M⁻¹ s⁻¹
